Measured values: US5648214, “High-affinity oligonucleotide ligands to the tachykinin substance P” (University Research Corporation)

T1: Substance P (SP) (UniProt P20366)
T1 sequence: RPKPQQFFGLM

T2: Substance P (SP) (UniProt P20366)
T2 chain: RPKPQQFFGLM


Legend:
Substance P (SP) [1] = target: T1, Substance P (SP); conditions: equilibrium dialysis rough estimate at 20 uM RNA, fraction bound 0.017
Substance P (SP) [2] = target: T2, Substance P (SP); assay: high affinity class 3 ligand; single-point equilibrium dialysis, Kd value only in figure; conditions: protein: synthetic; tags: synthetic peptide, C-terminal amide; Sigma; 3H-SP from NEN
Experimental: Equilibrium dialysis experiments were performed with a Spectra/Por® (Spectrum; Houston, Tex.) equilibrium dialyzer, Spectra/Por® (Spectrum; Houston, Tex.) microcell dialysis chambers (200-µl chamber volumes), and 12000–14000 MWCO dialysis membranes (Spectrum; Houston, Tex.). These membranes allow passage of SP but not 107-nt RNAs. Sample volumes were 200 µl on each side of the membrane (i.e., 200 µl per chamber). All experiments were at room temperature in 1× SP binding buffer. RNAs (unlabeled) were denatured prior to re-equilibration in binding buffer as described above for Experiment B. For binding curves (FIG. 4), RNA concentrations between 50 nM and 20 µM were utilized. Single point K_d estimates for individual Experiment B ligands were performed with 200 nM or 1 µM RNA. […] Equilibrium dialysis initiated with ^3H-SP on one side of the membrane and in the absence of RNA was performed to determine the length of time required to attain equilibrium (~2.5 hours for Spectra/Por®-2 membranes); dialysis times for binding measurements were at least one hour longer than this determined time. Following equilibration, samples were withdrawn from the dialysis chambers, added to scintillation fluid, and counted.

| Molecule | Kd (Substance P (SP) [1]) [µM] | binding result (Substance P (SP) [2]) |
| --- | --- | --- |
| GGGAGCUCAGAAUAAACGCUCAANNNNNNNNNNNNNNNNNNNNNNNNNNNNNNNNNNNNNNNNNNNNNNNNNNNNNNNNNNNNUUCGACAUGAGGCCCGGAUCCGGC [unselected 60N RNA pool] | 1200 |  |
| ligand B32 (ssRNA) RNA: GGGAGCUCAGAAUAAACGCUCAAAAAGGCACUGACCACCCUCAGGAAGAAUAACCGCGGUCACCCGCAUCCGAGUCUAUCAAUUUCGACAUGAGGCCCGGAUCCGGC |  | binds |
